Results reported in US20250289893A1 (OXFORD UNIVERSITY INNOVATION, published 2025).
Changes are numbered by the printed parent chain.

B1: 77A (VR11851) (antibody, V domains shown)
VH: QSVEESGGRLVTPGTPLTLTCTVSGFSLSSYAMSWVRQAPGKGLEWIGIISSSGTTYYASWAKGRFTISKTSTTVDLKITSPTTEDTATYFCARVDYYSSGWGGLWGPGTLVTVSS
VL: AVEMTQTPASMSAAVGGTVTIKCQASEDIYSNLAWYQQKPGQPPKLLIYGASTLASGVPSRFKGSGSGTEYTLTISGVQCDDAATYYCQCTYDTSSYGNTFGGGTEMVVE
notes: also called OX77a; antibody 77a
B2: 111 (VR12113) (antibody, V domains shown)
VH: QSVEESGGRLVTPGTPLTLTCTASGFSLSTYAMSWVRQAPGKGLEWIGIISSSGSTYYASWAKGRFTISKTSTTVDLKITSPTTEDTATYFCARETWYWLDLWGQGTLVTVSS
VL: B1 VL with M11V, K22N, T91A, T94S, N99T, T100P, M107V, E110K
notes: also called OX111
B3: 110 (VR12112) (antibody, V domains shown)
VH: QSVEESGGRLVTPGTPLTLTCTVSGFSLSSYAMIWVRQAPGKGLEWIGIINSSDNTHYATWAKGRFTISKTSTTVDLKITSPTTEDTATYFCARDPYDYGYGWYFDLWGPGTLVTVSS
VL: AQVLTQTPSPVSAAVGGTVTINCQASQSVFNNKNLAWYQQKPGQPPKLLIYKASTLASGVSSRFKGSGSGTQFALTISGVQCDDAATYYCQGEFSCSSTDCVTFGGGTEVVVK
notes: also called OX110; antibody 110

Key:
[1] = biological target: Chinese variant CD1a protein (human) (UniProt P06126); test: ELISA, 0.01 µg/ml antibody
Chinese variant CD1a protein (human), sequence (P06126 18-295, change not shown): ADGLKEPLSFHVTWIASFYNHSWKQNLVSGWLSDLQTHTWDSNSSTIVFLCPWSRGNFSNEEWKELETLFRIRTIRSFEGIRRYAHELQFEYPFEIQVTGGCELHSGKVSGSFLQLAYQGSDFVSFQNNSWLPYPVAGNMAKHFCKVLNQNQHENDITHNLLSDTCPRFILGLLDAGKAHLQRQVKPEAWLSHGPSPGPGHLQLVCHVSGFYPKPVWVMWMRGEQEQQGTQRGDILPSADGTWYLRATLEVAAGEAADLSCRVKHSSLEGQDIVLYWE

[2] = biological target: T1, chimeric CD1a pool B protein [human CD1a lipid binding domain, mouse CD1d Ig domain] (human; mouse, UniProt P06126 18-201; P11609 205-297, limits assumed); test: ELISA, 10 µg/ml antibody
T1 sequence (P06126 other isoform, or with tags, fused parts or gaps mutant limits assumed): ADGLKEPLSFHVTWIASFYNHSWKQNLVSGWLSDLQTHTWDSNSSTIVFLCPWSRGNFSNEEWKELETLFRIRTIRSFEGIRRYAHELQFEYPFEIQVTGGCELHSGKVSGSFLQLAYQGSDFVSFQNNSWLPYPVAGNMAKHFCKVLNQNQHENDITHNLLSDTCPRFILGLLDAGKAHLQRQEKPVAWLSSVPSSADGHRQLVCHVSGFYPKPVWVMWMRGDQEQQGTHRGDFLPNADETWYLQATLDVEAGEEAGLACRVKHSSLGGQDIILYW
Description: (§1) CD1a-specific antibodies were identified by ELISA. […] 20 μl/well of peroxidase-conjugated goat anti-species IgG Fc-specific F(ab′)2 fragment (Jackson ImmunoResearch), diluted 1:5000 in block buffer was added and incubated at room temperature for 1 hour, followed by washing with wash buffer.
(§2) The antibodies were titrated through a dilution series and compared to a control rabbit IgG antibody. […] Data shown for purified antibodies.

[3] = biological target: T2, Cynomolgus monkey CD1a protein (Cynomolgus monkey); test: ELISA, 10 µg/ml antibody
T2 chain: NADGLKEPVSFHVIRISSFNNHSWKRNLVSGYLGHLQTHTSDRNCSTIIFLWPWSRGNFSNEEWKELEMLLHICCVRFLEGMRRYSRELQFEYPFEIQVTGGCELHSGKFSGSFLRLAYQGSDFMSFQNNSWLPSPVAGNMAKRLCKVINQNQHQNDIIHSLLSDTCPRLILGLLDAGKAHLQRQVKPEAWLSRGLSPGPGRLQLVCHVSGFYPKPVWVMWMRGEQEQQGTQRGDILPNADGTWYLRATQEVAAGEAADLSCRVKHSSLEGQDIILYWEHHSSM

[4] = biological target: T3, human CD1a protein (pool B) (human, UniProt P06126 18-295, limits assumed); test: ELISA, 0.1 µg/ml antibody
T3 construct: Recombinant protein of the ELISA (coated) and the Biacore T200 titration; whole entry named; also called human CD1a pool B; full length CD1a
T3 sequence (P06126 18-295 limits assumed): as the sequence (P06126 18-295, change not shown) above
Description: as §1
The antibodies were titrated through a dilution series and compared to a control rabbit IgG antibody.

[5] = biological target: T1, chimeric CD1a pool B protein [human …; test: ELISA, 31.6 µg/ml antibody
Description: as §1, §2

[6] = biological target: T4, human CD1b expressed on HEK-293 cells (human, UniProt P29016 18-333; P61769 21-119); test: flow cytometry, HEK-293 cells
T4 construct: also called HEK - CD1b
Description: (§3) Binding to proteins expressed on HEK, C1R and MOLT4 cell lines was assessed. […] The C1R-CD1a, C1R-empty vector and MOLT4 cell lines were washed in 1×PBS on the day required. All cell lines were counted and resuspended in 1×PBS and then stained for 30 minutes at 37° C. using the DiI or DiO cellular stains (Invitrogen). Cells were washed with flow cytometry buffer (1% bovine serum albumin, 2 mM EDTA and 0.1% sodium azide in PBS) before mixing 2 DiI-stained and DiO-stained populations together. The cells (20 μl/well) were then added to dilutions of antibody sample (B cell culture supernatant, TAP supernatant, clone supernatant, purified antibody solution) (20 μl/well) and incubated for 1 hour at 4° C. in a flow cytometry assay plate, before being washed with flow cytometry buffer. 10 μl/well of Alexafluor647-conjugated goat anti-species IgG Fc-specific F(ab′)2 fragment (Jackson ImmunoResearch), diluted 1:2500 in flow cytometry buffer, was added and incubated at 4° C. for 30 minutes, followed by washing with wash buffer. The fluorescence intensity was then measured on an iQue screener PLUS.
(§4) HEK-293 cells were transiently transfected with human CD1a, CD1b, CD1c or CD1d and co-transfected with human β2M.

[7] = biological target: T5, human CD1c expressed on HEK-293 cells (human, UniProt P29017 18-333; P61769 21-119); test: flow cytometry, HEK-293 cells
T5 construct: also called HEK - CD1c
Description: as §3, §4

[8] = biological target: T6, human CD1d expressed on HEK-293 cells (human, UniProt P15813 20-335; P61769 21-119); test: flow cytometry, HEK-293 cells
T6 construct: also called HEK - CD1d
Description: as §3, §4

[9] = biological target: T7, human CD1a expressed on cells (human, UniProt P06126 17-327; P61769 21-119); test: flow cytometry, MOLT4 cells, 1 µg/ml antibody
T7 construct: also called HEK - CD1a; C1R - CD1a
Description: (§5) CD1a-specific antibodies were identified by flow cytometry. Binding to proteins expressed on HEK, C1R and MOLT4 cell lines was assessed. […] The C1R-CD1a, C1R-empty vector and MOLT4 cell lines were washed in 1×PBS on the day required. All cell lines were counted and resuspended in 1×PBS and then stained for 30 minutes at 37° C. using the DiI or DiO cellular stains (Invitrogen). Cells were washed with flow cytometry buffer (1% bovine serum albumin, 2 mM EDTA and 0.1% sodium azide in PBS) before mixing 2 DiI-stained and DiO-stained populations together. The cells (20 μl/well) were then added to dilutions of antibody sample (B cell culture supernatant, TAP supernatant, clone supernatant, purified antibody solution) (20 μl/well) and incubated for 1 hour at 4° C. in a flow cytometry assay plate, before being washed with flow cytometry buffer. 10 μl/well of Alexafluor647-conjugated goat anti-species IgG Fc-specific F(ab′)2 fragment (Jackson ImmunoResearch), diluted 1:2500 in flow cytometry buffer, was added and incubated at 4° C. for 30 minutes, followed by washing with wash buffer. The fluorescence intensity was then measured on an iQue screener PLUS.
(§6) Binding was quantified as fold change in fluorescence intensity geomean over background assessed by flow cytometry.

[10] = biological target: T7, human CD1a expressed on cells; test: flow cytometry, HEK-293 cells, 1 µg/ml antibody
Description: as §3, §4

[11] = biological target: T4, human CD1b expressed on HEK-293 cells; test: flow cytometry, HEK-293 cells, 1 µg/ml antibody
Description: as §3, §4

[12] = biological target: T5, human CD1c expressed on HEK-293 cells; test: flow cytometry, HEK-293 cells, 1 µg/ml antibody
Description: as §3, §4

[13] = biological target: T6, human CD1d expressed on HEK-293 cells; test: flow cytometry, HEK-293 cells, 1 µg/ml antibody
Description: as §3, §4

[14] = biological target: T7, human CD1a expressed on cells; test: flow cytometry, C1R cells, 0.0316 µg/ml antibody
Description: as §3, §6

[15] = biological target: T8, Cynomolgus monkey CD1a expressed on HEK-293 cells (Cynomolgus monkey, UniProt A0A2K5VQ68 17-326); test: flow cytometry, HEK-293 cells, 10 µg/ml antibody
T8 sequence (A0A2K5VQ68 entry or part of it): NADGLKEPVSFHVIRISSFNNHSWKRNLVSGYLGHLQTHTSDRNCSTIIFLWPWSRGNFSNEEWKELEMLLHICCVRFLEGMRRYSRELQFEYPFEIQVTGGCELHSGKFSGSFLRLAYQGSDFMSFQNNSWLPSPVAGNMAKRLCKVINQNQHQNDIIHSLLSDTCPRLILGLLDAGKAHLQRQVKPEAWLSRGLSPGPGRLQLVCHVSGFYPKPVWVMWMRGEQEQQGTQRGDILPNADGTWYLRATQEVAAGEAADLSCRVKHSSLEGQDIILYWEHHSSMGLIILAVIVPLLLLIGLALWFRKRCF
Description: as §3, §6

[16] = biological target: T7, human CD1a expressed on cells; test: flow cytometry, HEK-293 cells, 0.1 µg/ml antibody
Description: as §3, §4

[17] = biological target: T4, human CD1b expressed on HEK-293 cells; test: flow cytometry, HEK-293 cells, 0.1 µg/ml antibody
Description: as §3, §4

[18] = biological target: T5, human CD1c expressed on HEK-293 cells; test: flow cytometry, HEK-293 cells, 0.1 µg/ml antibody
Description: as §3, §4

[19] = biological target: T6, human CD1d expressed on HEK-293 cells; test: flow cytometry, HEK-293 cells, 0.1 µg/ml antibody
Description: as §3, §4

[20] = biological target: T7, human CD1a expressed on cells; test: flow cytometry, MOLT4 cells, 0.0316 µg/ml antibody
Description: as §5, §6

[21] = biological target: T8, Cynomolgus monkey CD1a expressed on …; test: flow cytometry, HEK-293 cells, 0.01 µg/ml antibody
Description: as §3, §6

[22] = biological target: T7, human CD1a expressed on cells; test: flow cytometry, HEK-293 cells, 0.0316 µg/ml antibody
Description: as §3, §4

[23] = biological target: T4, human CD1b expressed on HEK-293 cells; test: as above
Description: as §3, §4

[24] = biological target: T5, human CD1c expressed on HEK-293 cells; test: as above
Description: as §3, §4

[25] = biological target: T6, human CD1d expressed on HEK-293 cells; test: as above
Description: as §3, §4

Binder | Optical Density (OD) [1] | Optical Density (OD) [2] | Optical Density (OD) [3] | Optical Density (OD) [5] | binding result [6] | binding result [7] | binding result [8] | Fluorescence Intensity Geomean (normalized to background) [9] | Fluorescence Intensity Geomean (normalized to background) [10] | Fluorescence Intensity Geomean (normalized to background) [11] | Fluorescence Intensity Geomean (normalized to background) [12] | Fluorescence Intensity Geomean (normalized to background) [13] | Fluorescence Intensity Geomean (normalized to background) [14] | Fluorescence Intensity Geomean (normalized to background) [15] | Fluorescence Intensity Geomean (normalized to background) [16] | Fluorescence Intensity Geomean (normalized to background) [17] | Fluorescence Intensity Geomean (normalized to background) [18] | Fluorescence Intensity Geomean (normalized to background) [19] | Fluorescence Intensity Geomean (normalized to background) [20] | Fluorescence Intensity Geomean (normalized to background) [21] | other results
B1 | 0.79 OD | 1.31 OD | 0.52 OD | 1.33 OD | no binding (tested: 100 µg/ml (highest tested)) | no binding (tested: 100 µg/ml (highest tested)) | no binding (tested: 100 µg/ml (highest tested)) | 13.5 fold over background | 41.9 fold over background | 1.1 fold over background | 1 fold over background | 1 fold over background | 17 fold over background | 1.4 fold over background | 43.8 fold over background | 1 fold over background | 0.9 fold over background | 0.9 fold over background | 8.7 fold over background | 1.7 fold over background | Optical Density (OD) [4]: 1.36 OD; Fluorescence Intensity Geomean (normalized to background) [22]: 24.9 fold over background; Fluorescence Intensity Geomean (normalized to background) [23]: 0.9 fold over background; Fluorescence Intensity Geomean (normalized to background) [24]: 1 fold over background; Fluorescence Intensity Geomean (normalized to background) [25]: 0.9 fold over background
B2 | 1.33 OD | 1.4 OD | 0.79 OD | 1.35 OD | no binding (tested: 100 µg/ml (highest tested)) | no binding (tested: 100 µg/ml (highest tested)) | no binding (tested: 100 µg/ml (highest tested)) | 31.2 fold over background | 42 fold over background | 1 fold over background | 1.1 fold over background | 1.1 fold over background | 26 fold over background | 16.3 fold over background | 23.1 fold over background | 1 fold over background | 1 fold over background | 1 fold over background | 12.4 fold over background | 8.9 fold over background | Optical Density (OD) [4]: 1.06 OD; Fluorescence Intensity Geomean (normalized to background) [22]: 11.1 fold over background; Fluorescence Intensity Geomean (normalized to background) [23]: 1 fold over background; Fluorescence Intensity Geomean (normalized to background) [24]: 1 fold over background; Fluorescence Intensity Geomean (normalized to background) [25]: 1 fold over background
B3 | 1.4 OD | 1.46 OD | 0.86 OD | 1.4 OD | no binding (tested: 100 µg/ml (highest tested)) | no binding (tested: 100 µg/ml (highest tested)) | no binding (tested: 100 µg/ml (highest tested)) | 33 fold over background | 49.2 fold over background | 1.1 fold over background | 1.1 fold over background | 1.1 fold over background | 17.1 fold over background | 13.6 fold over background | 20.2 fold over background | 1 fold over background | 1 fold over background | 1 fold over background | 1.6 fold over background | 1.2 fold over background | Fluorescence Intensity Geomean (normalized to background) [22]: 8.9 fold over background; Fluorescence Intensity Geomean (normalized to background) [23]: 1 fold over background; Fluorescence Intensity Geomean (normalized to background) [24]: 1 fold over background; Fluorescence Intensity Geomean (normalized to background) [25]: 1 fold over background
